Reference: patent US20230107034A1 (BRIGHAM AND WOMEN S HOSPITAL, published 2023)
Where “and” joins values, the source holds several entries; their conditions need not be identical. Identical values can stand only once.

Legend:
[1] = target: soluble synaptotoxic Aβ in aqueous human AD brain extract (human, UniProt P05067 18-701); experiment: cell-based or functional assay
[2] = target: T1, synthetic Aβ protofibrils (Aβ1-42-derived protofibrils) (UniProt P05067 672-713); experiment: binding profile column of Table 5
T1 construct: domain: Aβ1-42; Multimeric assembly; also called PF; PFs
T1 sequence (P05067 672-713 limits assumed): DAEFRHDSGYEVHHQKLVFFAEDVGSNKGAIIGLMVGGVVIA

[3] = target: T2, synthetic Aβ-derived diffusible ligands (ADDLs) (UniProt P05067 672-713); experiment: binding profile column of Table 5
T2 construct: domain: Aβ1-42; Oligomeric assembly; also called synthetic Aβ oligomers
T2 sequence (P05067 672-713 limits assumed): as above

monomeric Aβ = target: T3, monomeric Aβ (UniProt P05067 672-713); experiment: binding profile column of Table 5
T3 construct: also called Aβ monomer; Aβ1-40 monomer and/or Aβ1-42 monomer
T3 sequence (P05067 672-713): as the sequence (P05067 672-713 limits assumed) above

Sequence of soluble synaptotoxic Aβ in aqueous human AD brain extract (P05067 18-701): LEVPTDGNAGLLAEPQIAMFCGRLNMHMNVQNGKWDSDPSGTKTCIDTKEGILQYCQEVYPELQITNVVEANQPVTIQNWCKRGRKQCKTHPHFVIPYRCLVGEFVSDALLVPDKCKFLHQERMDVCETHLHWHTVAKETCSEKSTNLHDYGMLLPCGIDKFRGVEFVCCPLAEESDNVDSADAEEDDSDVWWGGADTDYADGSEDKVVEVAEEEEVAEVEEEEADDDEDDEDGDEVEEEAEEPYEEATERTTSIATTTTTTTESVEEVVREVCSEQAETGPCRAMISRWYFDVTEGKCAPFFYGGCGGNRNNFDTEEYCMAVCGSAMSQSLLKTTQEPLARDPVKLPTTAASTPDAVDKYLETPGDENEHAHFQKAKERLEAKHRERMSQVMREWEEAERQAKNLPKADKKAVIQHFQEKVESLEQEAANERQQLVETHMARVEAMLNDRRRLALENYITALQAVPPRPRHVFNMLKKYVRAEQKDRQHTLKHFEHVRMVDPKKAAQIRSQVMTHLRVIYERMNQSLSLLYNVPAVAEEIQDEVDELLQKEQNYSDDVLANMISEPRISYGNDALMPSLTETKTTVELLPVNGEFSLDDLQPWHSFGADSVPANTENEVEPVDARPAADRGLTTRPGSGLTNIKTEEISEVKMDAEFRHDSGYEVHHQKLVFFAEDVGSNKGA

B1: B75 (hybridoma-purified mAb) (antibody, V domains shown)
VH: QVQLVESGGGVVQPGRSLRLSCAASGFTFSSYGMHWVRQAPGKGLEWVAVIWYDGSYKYYADSVKGRFTISRDNSKNTLYLQMNSLRVEDTAVYYCAREGRTYYDFLTGYFDFWGQGTLVTVSS
VL: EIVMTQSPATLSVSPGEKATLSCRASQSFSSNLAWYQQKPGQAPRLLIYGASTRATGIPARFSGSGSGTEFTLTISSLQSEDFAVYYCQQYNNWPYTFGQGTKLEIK
With B1 the “EC50 of neuritotoxicity protection, iN cellular assay, Mean” value (“EC50 of neuritotoxicity protection … Mean” below) [1] was 2.05 µg/mL and the “EC50 of neuritotoxicity protection, iN cellular assay, Run13” value [1] was 2.05 µg/mL.

B2: rB75 (recombinant B75, human IgG1 LALA) (antibody, V domains shown)
VH: B1 VH
VL: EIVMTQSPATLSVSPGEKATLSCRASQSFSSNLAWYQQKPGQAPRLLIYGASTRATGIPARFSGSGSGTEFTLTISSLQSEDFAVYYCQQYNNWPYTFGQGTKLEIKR
In the case of B2, the “EC50 of neuritotoxicity protection … Mean” value [1] is reported as 4.08 µg/mL, the “EC50 of neuritotoxicity protection, iN cellular assay, Run15” value [1] is reported as 2.11 µg/mL and the “EC50 of neuritotoxicity protection, iN cellular assay, Run16” value [1] is reported as 6.04 µg/mL.

B3: rB28 (recombinant B28, human IgG1 LALA) (antibody, V domains shown)
VH: QVQLVESGGGVVQPGRSVRLSCAATGFTFSSYGMHWVRQAPGKGLEWVAVIWFDGSNEYYADSVRGRFTISRDNSKNTLYLQMNSLRAEDTAVYYCARRGRVGVTRNYYYYNMDVWGQGTTVTVSS
VL: AIQMTQSPSSLSASVGDRVTITCRASQGIRNDLGWFQQKPGKAPKLLIYPASSLQSGVPSRFSGSGSDTDFTLTISSLQPEDFATYYCLQDYNFPFTFGPGTKVDIKR
B3 was tested, and the “EC50 of neuritotoxicity protection … Mean” value [1] was 1.53 µg/mL, the “EC50 of neuritotoxicity protection, iN cellular assay, Run11” value [1] was 1.76 µg/mL and the “EC50 of neuritotoxicity protection, iN cellular assay, Run12” value [1] was 1.34 µg/mL. For the same binder, the “EC50 of neuritotoxicity protection, iN cellular assay, Run13” value [1] was 1.5 µg/mL.

B4: rC11 (recombinant C11, human IgG1 LALA) (antibody, V domains shown)
VH: QVQLQESGPGLVKPSETLSLTCTVSGGSISSYYWSWIRQPPGKGLEWIGSIYYSGTTKYNPSLKSRVTISVGTSKNQFSLKLNSVTAADTAVYYCARDNWGSRFDYWGQGTLVTVSS
VL: DIQMTQSPSSLSASVGDRVTITCRASQGIRNDLGWYQQKPGKAPTLLIYAASSLQSGVPSRFSGSGSGTDFTLTISSLQPEDFATYYCLQDFNYPYTFGQGTKLEIKR
With B4 the “EC50 of neuritotoxicity protection … Mean” value [1] was 2.79 µg/mL, the “EC50 of neuritotoxicity protection, iN cellular assay, Run16” value [1] was 3.58 µg/mL and 2.19 µg/mL and the “EC50 of neuritotoxicity protection, iN cellular assay, Run17” value [1] was 2.58 µg/mL.

B5: C10 (hybridoma-purified mAb) (antibody, V domains shown)
VH: B4 VH
VL: DIQMTQSPSSLSASVGDRVTITCRASQGIRNDLGWYQQKPGKAPTLLIYAASSLQSGVPSRFSGSGSGTDFTLTISSLQPEDFATYYCLQDFNYPYTFGQGTKLEIK
notes: also called purified clone C10
B5: no binding [2]; no binding [3]; no binding (monomeric Aβ).

B6: C11 (hybridoma-purified mAb) (antibody, V domains shown)
VH: B4 VH
VL: B5 VL
notes: Purified from a Trianni mouse hybridoma (FusC); also called purified clone C11
B6: no binding [2]; no binding [3]; no binding (monomeric Aβ).

B7: rB24 (recombinant B24, human IgG1 LALA) (antibody, V domains shown)
VH: EVQLLESGGGLVQPGGSLRLSCAASGFTFSSYAMTWVRQAPGEGLEWVSTISGSGIRTYYADSVKGRFTISRDNSKNTMYLQMNSLRAEDTAVYYCAKDGLTGDRRWYFDLWGRGTLVTVSS
VL: EIVMTQSPATLSLSPGERATLSCRASQSVSSSYFSWYQQKPGQAPRLLIYGASTRATGIPARFSGSGSGTDFTLTISSLQPEDFAVYYCQQDSNLPLTFGGGTKVEIKR
With B7 the “EC50 of neuritotoxicity protection … Mean” value [1] was 3.97 µg/mL, the “EC50 of neuritotoxicity protection, iN cellular assay, Run15” value [1] was 2.53 µg/mL and the “EC50 of neuritotoxicity protection, iN cellular assay, Run17” value [1] was 5.4 µg/mL.

B8: rB73 (recombinant B73, human IgG1 LALA) (antibody, V domains shown)
VH: QLQLQMSGPGLVKPSETLSLTCTVSGGSISSSSYYWGWIRQSPGKGLEWIGSIYYSGRTYYNPSLKSRVTISVDTSKNQFSLKLSSVTAADTAMYYCARRSSGRPYYWGQGTLVTVSS
VL: QAVVTQESALTTSPGGTVILTCRSSTGAVTTSNYANWVQEKPDHLFTGLIGETNNRAPGVPVRFSGSLIGDKAALTITGAQTEDDAMYFCALWYSTHWVFGGGTKLTVLG
B8 was tested, and the “EC50 of neuritotoxicity protection … Mean” value [1] was 1.94 µg/mL, the “EC50 of neuritotoxicity protection, iN cellular assay, Run10” value [1] was 1.98 µg/mL and the “EC50 of neuritotoxicity protection, iN cellular assay, Run11” value [1] was 1.97 µg/mL. The “EC50 of neuritotoxicity protection, iN cellular assay, Run12” value [1] was 1.49 µg/mL and the “EC50 of neuritotoxicity protection, iN cellular assay, Run14” value [1] was 2.32 µg/mL.
